Assay: soluble on expression in E. coli; label from the status in PepcDB or PDB records

Which “soluble on expression in E. coli” value does the source give for “MSLGGPNADAQRANQRNVKKPNTQTKIRLPESVRTKKPVDMDVAPVRQSSRDEIRYAANELDTFIERELLAEGIAAEELASDEVFLRRIYLDVAGRIPTLQEAEQFLSSKSSDRREELIDQLLSSPDYVSHTYNWWADTLRLVDRPQPNLVADPYNGYIKESIAENKPYDKWVYEMLTADGKVWDNPAVGFQLRDDGMPLPYIDNTVRVFLGTQIGCAQCHDHPFDEWSQYQFYQLAAFTAGTSTRMRKGDPGYEKTNPANDLINEGKKRYEKGRVPGEFQRIARANTYIVSERPRRLRLPHDYAYRDAKPKDFVEPKVLWGEIPSSAAKSTPREQFAAWVTSPENPRFSQTVVNRLWKRLMGVGFVDPVDDFRDENPCVNEAAMDYLCKELVRRGFDLKELTRIVLYSQTYQRKAVDYDITDGDLYYFPGPTVRRMTAEQVWDSILTLAVDNPWPFQRPTAKEMKPVMDLDFSKVDFEEVQRRSAKFKETYFASTYKRNLNQHAYQRNVLCRASELPAPLPADHFLRQFGQGDREVINGSQDEATVPQILAMFNGPITHVMLEPGSALVDNVLEVNNVKNRIDAIFLSVLTRKPSTEDRILASRELSSQNQTGVGYGNIIWALLNTREFLFVQEGHHHHHH” here?
Its value is “not soluble”.

Which “soluble on expression in E. coli” value does the source give for “MGSDKIHHHHHHMHQLKREALLREAIAAFNQKGFHATSLGDIATSLGVTKAALYHYFPNKHALLFEAFAEALRVGFEAIEAAERHGGSGLDKLQMAVREYLQVTLSEMSRCVIITEEHALEPQDRAKIVEQRDRFEAKLRGFVREGIEDGSVIPCDPKLAIFSIFGAVNWVPKWFSDSGNWSNKQLAKGMSELLCRAVARHPAEAFAPDIGKMRVE” here?
The value was “not soluble”.

For “MRQLLLISDLDNTWVGDQQALEHLQEYLGDRRGNFYLAYATGRSYHSARELQKQVGLMEPDYWLTAVGSEIYHPEGLDQHWADYLSEHWQRDILQAIADGFEALKPQSPLEQNPWKISYHLDPQACPTVIDQLTEMLKETGIPVQVIFSSGKDVDLLPQRSNKGNATQYLQQHLAMEPSQTLVCGDSGNDIGLFETSARGVIVRNAQPELLHWYDQWGDSRHYRAQSSHAGAILEAIAHFDFLS”, which “soluble on expression in E. coli” value is on record?
The value was “soluble”.

Which “soluble on expression in E. coli” value does the source give for “MGSDKIHHHHHHMSLAVVYSRASMGVQAPLVTIEVHLSNGKPAFTLVGLPEKTVTEAQGRVRSALLNAQFKYPAKRITVNLAPADLPKEGGRFDLPIALGILAASEQINAKKLQQFEFVAELALTGELRGVHGVIPAILAGQKSKRQLIVAQQNANEASLVSQHETFFARNLLEVVQFLNDDSSLPSSTTLCMQSAVDFSPQSNKDLTDIIGQQHAKRALMIAAAGQHNLLFLGPPGTGKTMLASRLTGLLPDMTDQEAIETASVTSLVQNELNFQNWKQRPFRAPHHSASSPALVGGGTIPKPGEISLAHNGVLFLDELPEFERRVLDALRQPLESGEIIISRANAKIQFPARFQLVAAMNPSPTGHYTGIHNRTSPQQVLRYLNRLSGPFLDRFDLSIEVPLLPQGALQNTEDRGETTAQVKEKVLRVREIQLARAGKVNAYLTGKEIERDCKLTEQDALFLENTLTRLGLSVRAYHRILKVARTIADLNGDSDIKQNHLAEALSYRAMDRLLRKLSDQ” here?
The value was “not soluble”.

With “MGKMIPYVIDLDAIFDLSSIEIYRLLTSSLSNVRYYPPKDLLKTVINDFDISKFKPFPDSQYLEELNYRARIYVITNLPKIEAKLLLVRYNLDAFIQDVISPEDINRYFPSKEVLVLISRKTNSPLGSITFITPHIDYAILTSNLGMRTILIRNSISLPRDIRVEIRKSLVELAEITAQHKIDSEAGDSALRCQ” as the sequence, how does the “soluble on expression in E. coli” value read?
The value was “not soluble”.

Which “soluble on expression in E. coli” value does the source give for “MAHHHHHHMLRRNIRLRKEYLYLKKVEDEKKKYAEKIKSIKESYDKNKKIRGDLKDEESELRKNMNLYDEKSFDRKVDDEYFFCGLENPRVLITTSRNPSSTLENFAKELKLIIPNSEKINRGSYFIKDILNFARKNNITDVIILHEYKGIPRNLIICHLPFGPTLFCTIKDCKMRCEFNEKIDNISLCTPHLIFHNFHSDLGKRIMNIFKYLFPPVTMRTNKRKMPKHNSQIVKDNKLNKNININTNNNDTNQMDQMDQMNKIKFVTHTTQDDEDNNDHLQIYFKNNEYLNLQKYENNRVIVFFNKNDIIYFRHYNWEKNQTNEIVLKEIGPRFSFVVYKINKETLDSLNEDYEYIYRPFMNSRKALLT” here?
The value was “not soluble”.

With “MSLEEVLKDIERDKEEKKKEIADAASRETAKIEKEREEKIQILQREYENRMREEGSRLYNSIIDKANVEARNIVRMRVQEILDQYGAKADELIKNLAKTKEYDDVLKKMIEVSRKALGPDCIVKVNTADKGRISDGNIKFEDIDPYGGVLATSRDGKIELDLRISSIRRDILERFKVRLYSMIED” as the sequence, how does the “soluble on expression in E. coli” value read?
The value was “not soluble”.

For “MGSDKIHHHHHHMQKIFDAHLHLWDLEKIPISWIKDDEKLEQNYDFFRMKQEYKEFEFIGAMYVEVNSDDLEKEALFALEQKKLHNLLFCLADFKHKEELSSFREVMHTSKKGAKRLFEADFEEKIEILKTFNIPFEACIKNEELGFLEKFLSKNPNLKVVLNHLGSPKINRLNEYKKDLSFLKKFQNLYIKLSIPDGFSQETPKEFIFELFAFLKENFSENKFIFGSNYPVAKITPAKWAKLIIESKIFDDLDKIFYKNALLIYKGG”, which “soluble on expression in E. coli” value is on record?
The value was “not soluble”.

With “MLTVDQVKELVGEIKDPIIDVPLKETEGIVEVSIKEEKEHVSVKLAMAQLGGAPQLDLQMAVVNALKENGAKTVGIRFETLPEEKVNQFKPKEENKPKTIEGLLSQNNPVEFIAIASGKGGVGKSTVAVNLAVALAREGKKVGLVDADIYGFSVPDMMGIDEKPGIKGKEVIPVERHGVKVISMAFFVEENAPVIWRGPMLGKMLTNFFTEVKWGDIEYLILDLPPGTGDVALDVHTMLPSSKEIIVTTPHPTAAFVAARAGAMAKHTDHSILGVIENMSYFESKETGNKEYVFGKGGGTKLADELNTQLLGELPLEQPSWNPKDFAPSIYQSDDRLGKIYSSIAQKVIAATNKLEHHHHHH” as the sequence, how does the “soluble on expression in E. coli” value read?
The value was “soluble”.

Which “soluble on expression in E. coli” value does the source give for “RMALSVLASSKEELFMPLLSQEAAHPDEWAGRLKNLSVNAEHAVTASLKNAEKAAVILGAEVQNHPDYAAVYAAAQELADATGAVLGILPQAANSVGADVLNVNSGKSVVEMVNAPKQAVLLLNVEPEIDTADGAKAVAALKQAKSVMAFTPFVSETLLDVCDVLLPIAPFTETSGSFINMEGRLQSFHGVVQGFGDSRPLWKVLRVLGNLFDLKGFEYHDTAAILKDALDVESLPSKLDNRNAWTGEGVQTTSDRLVRVGGVGIYHTDSIVRRSAPLQETSHAAVPAARVNPNTLARLGLQDGQTAVAKQNGASVSVAVKADAGLPENVVHLPLHTENAALGALMDTIELAGA” here?
Its value is “not soluble”.

For “MKEVRIVFQPGEISVPVAAGTTIMEAMNRSGLGEDFPCGGRGKCGKCRVKVREGREDFTAIDEDHLTAQELAEGVRLACATKINRDMMVEMQSPKKLQHHILIDSAARAFHIHPHLVKVFAEIAQPSLSEHKSDWQRLQESLAGLGCSVHDLQAPLSVLRRLPDTLRESTNRVTTIVYGSQVLGVEQGDTTGTLLGMAFDIGTTTIVGYLLDLNSGRELEVVSTLNPQAQYGGDVISRITFAGKEEKGLDTLHQAVTGAMNRLIGEAVDKAGVSRTQLYGISVAANTTMHHLFLGITPRSIGMSPYVSAINQGLVVAPGELGLEINKAGRVFVLPNIAGFVGADTTAVLLASDLEKSDHVTLILDIGTNGEIVLGSKNRMVACSAAAGPAFEGAQITSGMRGADGAIDHISFDHGLSYTVIGNGRPIGICGSALLDGVAGFVELGMINKRGKFLEPEKLTHPSALKLKDRLIKYEETWAFQLVEAGQTRHGRPILITQNDIRELQLAKGAIAAGVRILQEAMGIECEDIKEVLLAGAFGNYLNPHSACVIGLIPRELESRIKTIGNAAGNGAKIALLSAQEFSRAKDLAGGVSFVELGSYPGFNTIFAQNTYFKLD”, which “soluble on expression in E. coli” value is on record?
Its value is “soluble”.

Which “soluble on expression in E. coli” value does the source give for “METKYAFARQIIKEAGLFIKSKMSEQLDIQVKTQFDDLVTNVDQETQQLLMDRIHQTYPCDAILAEENDVRHPINQGNVWVIDPIDGTVNFIVQGSQFAVMIAYYEQGIGQFGLIYDVMADQLLAGGGDFEVTLNGDKLPAYQEKPLERSLIGCNAGMFARNDRNLAHLIAKTLGVRVYGGAGICMVKVMKQELLAYFSFIQPWDYAAAKVLGDKLGYVLLTIDGYEPDFQTRQKIMFVPKCQLTRIASFLTKDSAITLEDQ” here?
Its value is “not soluble”.

With “ARVDQTPRIATKETGESLTINCVLRDTACALDSTNWYRTKLGSTKEQTISIGGRYSETVDEGSNSASLTIRDLRVEDSGTYKCKAYRRCAFNTGVGYKEGAGTVLTVK” as the sequence, how does the “soluble on expression in E. coli” value read?
The value was “soluble”.

— the DeepSol protein solubility set
